Experimental data taken from patent publication US20230381329A1, “Zwitterion Polymer-Drug Conjugates” (University of Utah Research Foundation, priority 2022, published 2023).
Where two headings read alike, the source gives them in different places.

Tests used:
[1] = biological target: T1, recombinant human (rHu) insulin (Homo sapiens, UniProt P01308); experiment: Insulin aggregation assay (transmittance at 540 nm, continuous agitation at 37° C.); assay type: physicochemical
T1 construct: Insulin is a 51-residue protein
Description: Insulin or calcitonin solutions were prepared in PBS at pH 7.4 at a final concentration of 1 mg/mL, and with and without the addition of 1.5 molar equivs of CB [7]-PMet for rHu insulin and 5 molar equivs for hCT. […] The plate was shaken continuously at 37° C. and absorbance readings at 540 nm were collected every 6 min the duration of the experiment as reported. Absorbance values were subsequently converted to transmittance. […]

[2] = biological target: T2, Human calcitonin (hCT) (Homo sapiens, UniProt P01258); experiment: Calcitonin aggregation assay (transmittance at 540 nm, 37° C.); assay type: physicochemical; details: for time stabilized against aggregation: with 5 molar equivs CB[7]-PMet^CM80, with agitation, 37° C.; for time stabilized against aggregation / aggregation behavior alone: FIG. 5C; for aggregation behavior alone: without CB[7]-PMet^CM80, PBS pH 7.4, 37° C.; for stabilization against aggregation: with CB[7]-PMet^CM80, FIG. 5C
T2 construct: made in house; host or cells: chemical peptide synthesis (on resin)
T2 sequence (P01258 85-116): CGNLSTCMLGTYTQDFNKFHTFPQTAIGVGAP
Description: Aggregation assay methods. Insulin aggregation assay. Insulin aggregation was assessed (Sluzky, V.; et al. Proc. Natl. Acad. Sci. U.S.A 1991, 88 (21), 9377-9381; and Webber, M. J.; et al. Proc. Natl. Acad. Sci. U.S.A 2016, 113 (50), 14189-14194). Insulin or calcitonin samples at pH 7.4 PBS and a final concentration of 1 mg/mL were prepared with and without the addition of 1.5 molar equivs of CB [7]-PMet. Samples were plated in a clear 96-well plate (Thermo Scientific Nunc) at a volume of 150 μL per well (n=5 wells/group) and sealed with an optically clear and thermally stable seal. The plate was immediately placed into a Tecan Infinite M200 plate reader and shaken continuously at 37° C. Absorbance readings at 540 nm were collected every 6 min the duration of the experiment as reported, and absorbance values were subsequently converted to transmittance.
Calcitonin aggregation assay. hCT and analogs were dissolved in PBS buffer, pH 7.4 and centrifuged at 3000 rpm for 3 min. The supernatant concentration was determined by nanodrop (6=1615 M^−1cm^−1 at 280 nm). hCT and analogs were prepared at a final concentration of 0.5 mg/mL with and without 5 eq of PMet^CM80-CB[7]. Samples were plated at 150 μL per well in a clear 96-well plate (Fisher Scientific Nunc) and sealed with optically clear and thermally stable sealing tape (VWR). The plate was immediately placed into the plate reader at 37° C. Absorbance readings at 540 nm were collected every 6 min with 60 s shaking between reads for […]. Absorbance values were subsequently converted to transmittance.
Aggregation assays. Peptide therapeutics were prepared (Meudom, R.; et al. Curr. Res. Chem. Biol. 2022, 2, 100013) and aggregation was assessed (Sluzky, V.; et al. Proc. Natl. Acad. Sci. U.S.A 1991, 88 (21), 9377-938; and Webber, M. J.; et al. Proc. Natl. Acad. Sci. U.S.A 2016, 113 (50), 14189-14194). Insulin or calcitonin solutions were prepared in PBS at pH 7.4 at a final concentration of 1 mg/mL, and with and without the addition of 1.5 molar equivs of CB [7]-PMet for rHu insulin and 5 molar equivs for hCT. Samples were plated in a clear 96-well plate (Thermo Scientific Nunc) at a volume of 150 μL per well (n=wells/group) and sealed with an optically clear and thermally stable seal. The plate was shaken continuously at 37° C. and absorbance readings at 540 nm were collected every 6 min the duration of the experiment as reported. Absorbance values were subsequently converted to transmittance.
Next, the stabilizing effects of CB[7]-PMet^CM80 on other aggregation-prone proteins was assessed. Human calcitonin (hCT, FIG. 5A) was selected as a model protein therapeutic. Since hCT lacks a terminal Phe for host-guest complexation, the N-terminal amine was selectively modified on-resin with a benzylic amine group using reductive amination chemistry (FIG. 5B). To optimize binding, two spacer lengths between the terminal amine and the benzyl ring were examined comprising either one or two methylene units (hCT A1 and A2, respectively). Aggregation behavior over 40 h was examined using the methods described herein, and with or without CB[7]-PMet^CM80. […] However, addition of CB[7]-PMet^CM80 stabilized hCT A2 for at least 40 h with agitation, while hCT A1 was stabilized for ca. 34 h.

[3] = biological target: T1, recombinant human (rHu) insulin; details: CB[7] alone, already shown; cited from earlier work
[4] = tested on: Chinese hamster ovary cells; details: cited from earlier work
[5] = mice, cited from earlier work
[6] = biological target: N-terminal phenylalanine residue on insulin (Homo sapiens, UniProt P01308); details: CB[7] macrocycle binding N-terminal phenylalanine of insulin; cited from earlier work
N-terminal phenylalanine residue on insulin, sequence (P01308 25-54 limits assumed): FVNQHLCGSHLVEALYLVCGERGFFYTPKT
N-terminal phenylalanine residue on insulin, sequence (P01308 90-110 partner limits assumed): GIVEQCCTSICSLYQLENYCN

T1 sequence (P01308 25-54 limits assumed): as the sequence (P01308 25-54 limits assumed) above

Substance	time stabilized against aggregation [2]	aggregation behavior alone [2]	stabilization against aggregation [2]	further results
Poly-S-Carboxymethyl-L-Methionine Sulfonium Chloride Alkyne [PMetCM-Alk]	–	–	–	inhibition of rHu insulin aggregation under continuous agitation ([1]; 1 mg/mL insulin, PBS pH 7.4, 1.5 molar equivs additive, 37° C., 100 h, FIG. 3B): no inhibition
hCT A1: benzyl-functionalized human calcitonin with one methylene spacer between the terminal amine and the benzyl ring	ca. 34 h	rapid aggregation	–	–
hCT A2: benzyl-functionalized human calcitonin with two methylene spacers between the terminal amine and the benzyl ring	at least 40 h	rapid aggregation	resistance to aggregation	–
hCT: Human calcitonin, SEQ ID NO: 3, H2N-CGNLSTCMLGTYTQDFNKFHTFPQTAIGVGAP	–	rapid aggregation	not stabilized	–
cucurbit[7]uril [CB[7]]	–	–	–	effect on rHu insulin stability [3]: no effect; IC50 [4]: 530 ± 20 µM; tolerated dose ([5]; intravenous): up to 250 mg kg^−1; tolerated dose ([5]; oral): ≤ 600 mg/kg; Ka [6]: 1.5e+06 M⁻¹
rHu insulin: recombinant human insulin, SEQ ID NO: 1 and SEQ ID NO: 2 chains	–	–	–	aggregation of rHu insulin alone ([1]; no additive, continuous agitation at 37° C., within the first few hours): rapid aggregation
